Measured values taken from paper PMC6740198 (Molecular Biology of the Cell, 2019).

Key:
[1] = target: CD4-AChR β subunit MA loop chimera (UniProt P09690 333-469); test: co-IP
[2] = target: acetylcholine receptor (AChR) (mouse (endogenous in C2C12 myotubes and mouse muscle)) (UniProt P04756); test: pull-down

B1: Flag-vezatin (natural protein, UniProt Q3ZK22 1-780, looked up)
chain: MTPEFDEEVVFENSPLYQYLQDLGHTDFEICSSSSPKPEKCLTTEGPQPPPTRVLQRQGILLKLTETIKSWTFSSQHSKKDDLLHKLDTGFRLDSLHTILQQEVLLQEDVELLELLDASILSAGQPQQESGHLPTLCSLATPNTWDVSLLFAFISLLIMFPTCWIVSSWLVWGIILFLYLIIRVLKLWRTAKLQMTLKKYRVRLEDMAANSRAFTNLVRKSLRLIQETEVISRGFTLVSAACSFNKAAQHPGQHLIGLRKAVYRTVRANFQAARLATLYMLKNYPLNSESDNVTNYICVVPFKELGLGLSEDQISEEEARNLTDGFSLPALKVLFQLWVAQSSEFFRRLALLLSTANSPSGPLLTAALLPHHILCDVTQGLPHAHSACLDELKRSYEFFRYFETQHQSVPQRLSKTPQKSRELSNVHTAVRSLQLHLKALLNEVIILEDELEKLVCTKETQELLSEAYPILEQKLKLIEPHVQASNSCWEEAISQVDKLLRRNTDKKGKPGVACENPHCTAEPLVRPALHIEDRDPIPEEQELEAYVDDIDIESEFRKDDFYHLSQEDRERQKREQEESRRVLQELKSVLGFKASEAERQKWKQLLFSDHAVLTSLSPVDPVESVSNSEPPMNSDTEKVNSNATEEETSKPCAGDKEDSRTEYVCDSPTEGPSKDTSADTGLLLPGAEETMCHQHESEAKSPQAAAAGATAPPTPRDTLQLSIKQRLARLQLPPEFTFSAGLAAEVAARSLSFTTMQEQTFGDEEEEQLVEGGENEVEEK
fold reduction of association when rapsyn-HA is coexpressed [1]: 4 fold
fold increase in association in rapsn−/− against rapsn+/− muscle [2]: 1.8 fold
fold increase in association with agrin treatment (against untreated myotubes) [2]: 1.6 fold
